A word on the Kd: it is the constant that tells how readily two partners part at equilibrium. Read a low Kd as tighter binding. In general, koff refers to the rate constant with which the complex falls apart. The low end stands for a long-lived complex, the high end for a short-lived complex. What is called kon is the second-order rate constant of association. Read a high kon as faster complex formation.

The target of experiment [1] is DLL3 endogenously expressed on NCI-H82 cells (UniProt Q9NYJ7). The experiment is described as follows: FACS on NCI-H82 cells; antibody 4 nM.
Chain of DLL3 endogenously expressed on NCI-H82 cells (Q9NYJ7 27-618): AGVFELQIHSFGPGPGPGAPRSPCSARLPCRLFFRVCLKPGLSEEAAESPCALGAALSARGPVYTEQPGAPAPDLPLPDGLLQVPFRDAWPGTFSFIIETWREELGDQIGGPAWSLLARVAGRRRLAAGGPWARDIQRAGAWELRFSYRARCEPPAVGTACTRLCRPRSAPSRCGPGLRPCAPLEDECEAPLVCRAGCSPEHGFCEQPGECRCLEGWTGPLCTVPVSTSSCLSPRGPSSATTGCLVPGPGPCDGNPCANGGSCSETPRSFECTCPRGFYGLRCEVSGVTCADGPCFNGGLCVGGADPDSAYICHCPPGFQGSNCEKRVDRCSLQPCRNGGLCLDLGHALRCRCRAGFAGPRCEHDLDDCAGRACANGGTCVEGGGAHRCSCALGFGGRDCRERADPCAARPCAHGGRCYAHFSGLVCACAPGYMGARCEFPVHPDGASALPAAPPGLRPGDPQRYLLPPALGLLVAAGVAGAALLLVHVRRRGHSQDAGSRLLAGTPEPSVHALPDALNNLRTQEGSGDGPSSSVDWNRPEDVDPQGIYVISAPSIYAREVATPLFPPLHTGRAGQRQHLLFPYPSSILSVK
The target is the same in experiment [2]. The experiment is described as follows: FACS on NCI-H82 cells; antibody 20 nM.
Experiment [3] has the same target. The experiment is described as follows: FACS on NCI-H82 cells; antibody 0.8 nM.
Experiment [4] has the same target. The experiment is described as follows: FACS on NCI-H82 cells; antibody 100 nM.
Experiment [5] shares this target. The experiment can be described thus: FACS on NCI-H82 cells; antibody 0.16 nM.
The target is the same in experiment [6]. The experiment is described as follows: FACS on NCI-H82 cells; antibody 0.032 nM.
Experiment [7] shares this target. The experiment can be described thus: FACS on NCI-H82 cells; antibody 0.0064 nM.
Experiment [8] shares this target. The experiment can be described thus: FACS on NCI-H82 cells; antibody 0.00128 nM.
In experiment [9] the target is human DLL3 protein (extracellular segment, His tag) (human) (UniProt Q9NYJ7). The experiment can be described thus: SPR (Biacore 8K), antibody captured on Protein A chip, DLL3 antigen in solution, 1:1 Langmuir fit. On the technique in general: SPR reads the build-up and loss of mass on a sensor chip optically.
Chain of human DLL3 protein (extracellular segment, His tag) (human) (Q9NYJ7 27-492): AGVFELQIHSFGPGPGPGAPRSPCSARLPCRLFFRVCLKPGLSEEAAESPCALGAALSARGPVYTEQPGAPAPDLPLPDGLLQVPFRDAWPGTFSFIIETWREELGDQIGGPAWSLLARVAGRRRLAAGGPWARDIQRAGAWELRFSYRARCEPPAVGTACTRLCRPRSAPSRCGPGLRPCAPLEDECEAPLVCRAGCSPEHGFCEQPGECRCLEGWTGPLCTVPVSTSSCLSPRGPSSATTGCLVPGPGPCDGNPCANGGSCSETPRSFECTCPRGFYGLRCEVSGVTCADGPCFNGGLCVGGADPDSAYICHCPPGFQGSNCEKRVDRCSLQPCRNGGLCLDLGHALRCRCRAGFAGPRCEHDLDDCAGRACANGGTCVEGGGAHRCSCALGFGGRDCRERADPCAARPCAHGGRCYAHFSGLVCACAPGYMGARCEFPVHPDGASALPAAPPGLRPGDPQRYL

B1: mab006 scFv-hFc (Fc fusion, part only; not given: linker and human IgG1 Fc, not shown: a dimerising Fc or GST)
chain, part: DVQITQSPSYLAASPGETITINCRATKSISKYLAWYQEKPGKTNKLLIFSGSTLQSGIPSRFRGSGSGTDFTLTISSLEPEDFAMYYCQQHHEYPYTFGGGTKLEIKQVQLQQPGAELVRPGTSVKLSCKASGYTFTSYWMHWVRQRPGQGLEWIGVIDPSDSLANYNQEFKGKATLTVDTSSSTAYMQLSSLTSEDSAVYYCARDSTVVAPMDYWGQGTSVTVSS
In the case of B1, the MFI in experiment [1] came out at 457; in experiment [2], 488; in experiment [3] it was 422; in experiment [4], 586; in experiment [5], 416; in experiment [6], 292. For the same molecule, the MFI turned out to be 177 in experiment [7] and 123 in experiment [8]. This molecule displayed a Kd in experiment [9] of 1.25 nM. In addition, the dissociation rate constant (koff) in experiment [9] was determined as 0.000203 s⁻¹. For the same molecule, the kon in experiment [9] was 162000 M⁻¹ s⁻¹.

B2: Hab006VL4VH2-hFc (Fc fusion, part only; not given: Linker and human IgG1 Fc, not shown: a dimerising Fc or GST)
chain, part: DIVMTQSPDSLAVSLGERATINCRATKSISKYLAWYQQKPGQTNKLLIFSGSTLQSGVPDRFSGSGSGTDFTLTISSLQAEDVAVYYCQQHHEYPYTFGGGTKVEIKEVQLVQSGAEVKKPGASVKVSCKASGYTFTSYWMHWVRQAPGQRLEWMGVIDPSDSLANYNQEFKGRVTLTVDTSASTAYMELSSLRSEDTAVYYCARDSTVVAPMDYWGQGTTVTVSS
B2: the MFI in experiment [1] is 445; in experiment [2], 494; in experiment [3], 429; in experiment [4], 588; in [5], 385; in [6], 250. Moreover, the MFI in experiment [7] stood at 151; in [8] it was 117.

B3: mab009 scFv-hFc (Fc fusion, part only; not given: Linker and human IgG1 Fc, not shown: a dimerising Fc or GST)
chain, part: DIVMTQSPATLSVTPGDRVSLSCRASQTISDYLHWYQQRSHESPRLLIKYASQSISGIPSRFSGSGSGSDFTLSINSVEPEDVGVYYCQNGHSFPLTFGAGTKLELKEVQLQQSGTVLARPGASVKMSCKTSGYTFTSYWMHWVKQSPGQGLEWIGTIYPGNSDTRYNQKFKDKAYVTAVTSASTAYMELSSLTNEESAVYYCTRSYDYGDLDYWGQGTTLTVSS
For the molecule B3, the MFI in [1] was found to be 737; in experiment [2] it was 833; in experiment [3], 674; in experiment [4], 968; in experiment [5] it was 673; in experiment [6], 346. Moreover, the MFI in [7] worked out at 175; in [8], 123. Besides, the Kd in experiment [9] stood at 0.216 nM. The koff in experiment [9] was found to be 0.00132 s⁻¹. Further, the on-rate (kon) in experiment [9] was found to be 6.13e+06 M⁻¹ s⁻¹.

B4: mab014 scFv-hFc (Fc fusion, part only; not given: Linker and human IgG1 Fc, not shown: a dimerising Fc or GST)
chain, part: DIQMTQSSSSFSVSLGDRVTITCKASEDIYNRLAWYQQKPGNTPRLLISGATSLETGVPSRFSGSGSGKDFTLSITSLQTEDVATYYCQQYWSLPWTFGGGTKLEIKEVQLHQSGPELVKPGTSVKISCKASGYTFTDYYMNWVKQSHGKSLEWIGDINPNHGDTGYNQKFTGKATLTVDKSSSTAYMELRSLTSEDSAVYYCARNFFYYGTTYGWYFDVWGTGTTVTVSS
For the molecule B4, the MFI in [1] is 702; in experiment [2], 829; in experiment [3] it was 667; in experiment [4], 1190; in [5] it was 429; in experiment [6] it was 213. For the same molecule, the MFI in experiment [7] was 134; in [8], 112. In experiment [9], the Kd came to 0.0547 nM. The same molecule yielded a koff in experiment [9] of 4.64e-05 s⁻¹. Moreover, the kon in [9] came out at 848000 M⁻¹ s⁻¹.

B5: Hab015VL4VH6b-hFc (Fc fusion, part only; not given: VL-VH linker and human IgG1 Fc, not shown: another chain or arm of the molecule; a dimerising Fc or GST; small tags and cut ends)
VL: NIVLTQSPATLSLSPGERATLSCKASENVGTYVSWFQQKPGQSPRLLIYGASNRYTGIPARFSGSGSGTDFTLTISSLEPEDFAVYYCGQFYSFPSTFGGGTKVEIK
VH: EVQLVESGGGLVKPGGSLRLSCAASGITFSNFWMNWVRQAPEKGLEWVGQIRLKSDQYATHYAESVKGRFTISREDSKNTVYLQMNSLKTEDTAVYYCTTGYYFDYWGQGTTVTVSS
In experiment [9], B5 registered a Kd of 0.0131 nM, an off-rate (koff) of 2.5e-05 s⁻¹ and an on-rate constant (kon) of 1.91e+06 M⁻¹ s⁻¹.

B6: mab015 scFv-hFc (Fc fusion, part only; not given: linker and human IgG1 Fc, not shown: a dimerising Fc or GST)
chain, part: NIVMTQSPKSMSMSVGERVTLSCKASENVGTYVSWFQQKPEQSPKLLIYGASNRYTGVPDRFTGSGSATDFTLTISSVQAEDLADYHCGQFYSFPCTFGGGTKLEIKEVKLEESGGGLVQPGGSMKLSCVASGITFSNFWMNWVRQSPEKGLEWVAQIRLKSDDYATHYAESVKGRFTISRDDSKGSVYLQMNNLRTEDTGIHYCTTGYYFDYWGQGTTLTVSS
Consider B6, for which the MFI in experiment [1] came to 1190; in experiment [2], 1360; in [3], 1120; in experiment [4], 1680; in experiment [5], 588; in experiment [6], 218. Also, the figures for the MFI in [7] and in experiment [8] were 135 and 113, respectively. Further, the dissociation constant Kd in [9] was found to be 0.000597 nM. The koff in experiment [9] turned out to be 1.46e-06 s⁻¹. In experiment [9], the association rate constant (kon) came out at 2.45e+06 M⁻¹ s⁻¹.

B7: Hab009VL1aVH1-hFc (Fc fusion, part only; not given: Linker and human IgG1 Fc, not shown: a dimerising Fc or GST)
chain, part: DIVMTQSPLSLPVTPGEPASISCRASQTISDYLHWYLQKPGQSPQLLIKYASQSISGVPDRFSGSGSGSDFTLKISRVEAEDVGVYYCQQGHSFPLTFGQGTKLEIKEVQLVQSGAEVKKPGASVKVSCKASGYTFTSYWMHWVRQAPGQRLEWMGTIYPGNSDTRYNQKFKDRVTITADTSASTAYMELSSLRSEDTAVYYCTRSYDYGDLDYWGQGTTVTVSS
With B7, the MFI in experiment [1] is 759; in experiment [2], 815; in experiment [3], 722; in experiment [4] it was 888; in experiment [5], 673; in experiment [6], 379. Also, the MFI in [7] is 180; in [8] it was 122.

B8: Hab009VL2aVH1-hFc (Fc fusion, part only; not given: Linker and human IgG1 Fc, not shown: a dimerising Fc or GST)
chain, part: DIVMTQSPLSLPVTPGEPASISCRASQTISDYLHWYLQKPGQSPRLLIKYASQSISGVPDRFSGSGSGTDFTLKISRVEAEDVGVYYCQQGHSFPLTFGQGTKLEIKEVQLVQSGAEVKKPGASVKVSCKASGYTFTSYWMHWVRQAPGQRLEWMGTIYPGNSDTRYNQKFKDRVTITADTSASTAYMELSSLRSEDTAVYYCTRSYDYGDLDYWGQGTTVTVSS
In the case of B8, the MFI in experiment [1] was 747; in experiment [2] it was 789; in experiment [3], 709; in [4], 870; in [5], 671; in experiment [6], 377. Besides, the MFI in experiment [7] was determined as 185; in experiment [8], 124.

B9: mab013 scFv-hFc (Fc fusion, part only; not given: linker and human IgG1 Fc, not shown: a dimerising Fc or GST)
scFv, part: DIVLTQSPASLAVSLGQRATISCRASKSVSTSGFSYMHWYQQKPGQPPKLLIYLASNLESGVPARFSGSGSGTDFTLNIHPVEEEDAATYYCQHSRELPFTFGSGTKLEIKQVQLQQSGAELVKPGASVRISCKASGYAFSNYWINWVKQRPGKGLEWIGQINPGDGDTIYNGKFKGKATLTADKSSSTAYMQLSSLTSEDSAVYFCEREGRNYGDFAYWGQGTTLTVSS
For the molecule B9, in experiment [9], the Kd was 0.264 nM, the dissociation rate constant (koff) was determined as 0.00082 s⁻¹ and the kon was found to be 3.11e+06 M⁻¹ s⁻¹.

These data come from patent EP4786492A1.
